{
  "source": "patent US20230031980A1",
  "about": "(SHANGHAI NINTH PEOPLE S HOSPITAL SHANGHAI JIAO TONG …, published 2023)",
  "binders": {"B1": {"name": "SAGE1ΔI3BD (deletion mutant of SAGE1 lacking the I3BD domain) (other)", "chain": "MQASPLQTSQPTPPEELHAAAYVFTNDGQQMRSDEVNLVATGHQSKKKHSRKSKRHSSSKRRKSMSSWLDKQEDAAVTHSICEERINNGQPVADNVLSTAPPWPDATIAHNIREERMENGQSRTDKVLSTAPPQLVHMAAAGIPSMSTRDLHSTVTHNIREERMENGQPQPDNVLSTGPTGLINMAATPIPAMSARDLYATVTHNVCEQKMENVQPAPDNVLLTLRPRRINMTDTGISPMSTRDPYATITYNVPEEKMEKGQPQPDNILSTASTGLINVAGAGTPAISTNGLYSTVPHNVCEEKMENDQPQPNNVLSTVQPVIIYLTATGIPGMNTRDQYATITHNVCEERVVNNQPLPSNALSTVLPGLAYLATADMPAMSTRDQHATIIHNLREEKKDNSQPTPDNVLSAVTPELINLAGAGIPPMSTRDQYATVNHHVHEARMENGQRKQDNVLSNVLSGLINMAGASIPAMSSRDLYATITHSVREEKMESGKPQTDKVISNDAPQLGHMAAGGIPSMSTKDLYATVTQNVHEERMENNQPQPSYDLSTVLPGLTYLTVAGIPAMSTRDQYATVTHNVHEEKIKNGQAASDNVFSTVPPAFINMAATGVSSMSTRDQYAAVTHNIREEKINNSQPAPGNILSTAPPWLRHMAAAGISSTITRDLYVTATHSVHEEKMTNGQQAPDNSLSTVPPGCINLSGAGISCRSTRDLYATVIHDIQEEEMENDQTPPDGFLSNSDSPELINMTGHCMPPNALDSFSHDFTSLSKDELLYKPDSNEFAVGTKNYSVSAGDPPVTVMSLVETVPNTPQISP", "notes": "also called SAGE1DI3BD"}, "B2": {"name": "INTS6I3BD (INTS3-binding domain of INTS6, residues 803-887) (other)", "chain": "RSHEEVNTELKAQIMKEIRKPGRKYERIFTLLKHVQGSLQTRLIFLQNVIKEASRFKKRMLIEQLENFLDEIHRRANQINHINSN", "notes": "It was cloned in pGEX-6P-1 and purified as the INTS3CTD-INTS6I3BD complex; also called INTS6803-887; small domain at the C-terminus of INTS6"}, "B3": {"name": "INTS3CTD (C-terminal domain of INTS3, residues 572-978) (other)", "chain": "DQLDESLRDKVLQLQKGSDTEAQCEVMQEIVDQVLEEDFDSEQLSVLASCLQELFKAHFRGEVLPEEITEESLEESVGKPLYLIFRNLCQMQEDNSSFSLLLDLLSELYQKQPKIGYHLLYYLRASKAAAGKMNLYESFAQATQLGDLHTCLMMDMKACQEDDVRLLCHLTPSIYTEFPDETLRSGELLNMIVAVIDSAQLQELVCHVMMGNLVMFRKDSVLNILIQSLDWETFEQYCAWQLFLAHNIPLETIIPILQHLKYKEHPEALSCLLLQLRREKPSEEMVKMVLSRPCHPDDQFTTSILRHWCMKHDELLAEHIKSLLIKNNSLPRKRQSLRSSSSKLAQLTLEQILEHLDNLRLNLTNTKQNFFSQTPILQALQHVQASCDEAHKMKFSDLFSLAEEYED", "notes": "also called INTS3CTD dimer"}, "B4": {"name": "His-SAGE1-Flag (WT SAGE1) (other, not shown: small tags and cut ends)", "chain": "MQASPLQTSQPTPPEELHAAAYVFTNDGQQMRSDEVNLVATGHQSKKKHSRKSKRHSSSKRRKSMSSWLDKQEDAAVTHSICEERINNGQPVADNVLSTAPPWPDATIAHNIREERMENGQSRTDKVLSTAPPQLVHMAAAGIPSMSTRDLHSTVTHNIREERMENGQPQPDNVLSTGPTGLINMAATPIPAMSARDLYATVTHNVCEQKMENVQPAPDNVLLTLRPRRINMTDTGISPMSTRDPYATITYNVPEEKMEKGQPQPDNILSTASTGLINVAGAGTPAISTNGLYSTVPHNVCEEKMENDQPQPNNVLSTVQPVIIYLTATGIPGMNTRDQYATITHNVCEERVVNNQPLPSNALSTVLPGLAYLATADMPAMSTRDQHATIIHNLREEKKDNSQPTPDNVLSAVTPELINLAGAGIPPMSTRDQYATVNHHVHEARMENGQRKQDNVLSNVLSGLINMAGASIPAMSSRDLYATITHSVREEKMESGKPQTDKVISNDAPQLGHMAAGGIPSMSTKDLYATVTQNVHEERMENNQPQPSYDLSTVLPGLTYLTVAGIPAMSTRDQYATVTHNVHEEKIKNGQAASDNVFSTVPPAFINMAATGVSSMSTRDQYAAVTHNIREEKINNSQPAPGNILSTAPPWLRHMAAAGISSTITRDLYVTATHSVHEEKMTNGQQAPDNSLSTVPPGCINLSGAGISCRSTRDLYATVIHDIQEEEMENDQTPPDGFLSNSDSPELINMTGHCMPPNALDSFSHDFTSLSKDELLYKPDSNEFAVGTKNYSVSAGDPPVTVMSLVETVPNTPQISPAMAKKINDDIKYQLMKEVRRFGQNYERIFILLEEVQGSMKVKRQFVEFTIKEAARFKKVVLIQQLEKALKEIDSHCHLRKVKHMRKR", "notes": "also called wild type SAGE1"}, "B5": {"name": "SAGE1mut (R872A, F873A, K874A, M832A, F838A and Q840A) (other, not shown: small tags and cut ends)", "chain": "B4 chain with M832A, F838A, Q840A, R872A, F873A, K874A", "notes": "Derived from the WT SAGE1 plasmid by site-directed mutagenesis; also called mutant SAGE1; Mutant SAGE1"}, "B6": {"name": "SAGE1I3BD (INTS3-binding domain of SAGE1, residues 818-904) (other)", "chain": "AMAKKINDDIKYQLMKEVRRFGQNYERIFILLEEVQGSMKVKRQFVEFTIKEAARFKKVVLIQQLEKALKEIDSHCHLRKVKHMRKR", "notes": "Expressed in E. coli with a His-SUMO or GST tag; also called SAGE1818-904; small C-terminal region of SAGE1"}},
  "key": {"[1]": {"target": "T1, His-INTS3-Strep (human, UniProt Q68E01 2-1043)", "T1 construct": "also called INTS3 (co-IP construct)", "T1 sequence (Q68E01 2-1043)": "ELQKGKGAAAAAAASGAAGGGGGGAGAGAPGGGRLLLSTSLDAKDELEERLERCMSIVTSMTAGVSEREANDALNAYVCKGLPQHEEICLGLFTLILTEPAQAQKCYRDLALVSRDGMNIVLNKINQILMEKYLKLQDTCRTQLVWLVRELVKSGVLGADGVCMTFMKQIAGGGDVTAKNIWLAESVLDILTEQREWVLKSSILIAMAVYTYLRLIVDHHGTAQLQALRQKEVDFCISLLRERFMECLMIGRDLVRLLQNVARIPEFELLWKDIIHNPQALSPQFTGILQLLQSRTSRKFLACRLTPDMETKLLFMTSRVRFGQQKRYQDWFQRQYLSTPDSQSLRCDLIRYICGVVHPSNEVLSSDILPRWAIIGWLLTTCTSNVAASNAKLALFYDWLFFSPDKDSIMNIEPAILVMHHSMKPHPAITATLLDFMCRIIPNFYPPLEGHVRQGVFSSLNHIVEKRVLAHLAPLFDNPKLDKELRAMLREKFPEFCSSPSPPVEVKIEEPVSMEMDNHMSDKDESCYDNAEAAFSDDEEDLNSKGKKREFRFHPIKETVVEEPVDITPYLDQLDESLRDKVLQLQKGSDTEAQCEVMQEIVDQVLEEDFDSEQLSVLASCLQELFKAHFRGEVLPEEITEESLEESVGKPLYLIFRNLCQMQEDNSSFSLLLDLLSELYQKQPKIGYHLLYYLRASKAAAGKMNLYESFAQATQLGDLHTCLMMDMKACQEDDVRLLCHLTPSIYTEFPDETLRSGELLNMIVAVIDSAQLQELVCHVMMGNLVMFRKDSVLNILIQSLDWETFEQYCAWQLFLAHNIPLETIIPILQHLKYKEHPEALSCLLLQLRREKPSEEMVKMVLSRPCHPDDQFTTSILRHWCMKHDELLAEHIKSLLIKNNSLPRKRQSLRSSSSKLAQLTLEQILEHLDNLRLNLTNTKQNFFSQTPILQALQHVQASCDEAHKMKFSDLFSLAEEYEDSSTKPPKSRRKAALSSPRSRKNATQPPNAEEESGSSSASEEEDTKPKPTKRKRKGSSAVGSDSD", "assay": "co-IP", "description": "(§1) After 48 hours, cells were lysed in IP buffer containing 50 mM Tris-HCl pH 7.5, 150 mM NaCl, 0.1% Triton-X100, 1 mM EDTA and 1×Roche protease inhibitor. The supernatants were incubated overnight with mouse anti-His monoclonal antibody (Proteintech #66005-1-Ig), or rabbit anti-FLAG polyclonal antibody (Proteintech #20543-1-AP).\n(§2) Then, protein A/G agarose beads (Millipore, #[…]02) were added and rotated for 2 more hours. The immunoprecipitated complexes were subjected to SDS-PAGE, followed by Western blot and/or MS analyses."}, "[2]": {"target": "B3", "assay": "purification of the complex, size-exclusion chromatography (FIG. 8B)"}, "[3]": {"target": "the molecule itself", "assay": "homodimerisation of two INTS3CTD protomers; crystal structure (2.3 Å) and calibrated size-exclusion chromatography"}, "[4]": {"target": "T1, His-INTS3-Strep", "assay": "co-IP in transfected HEK-293T cells (FIG. 6C)", "description": "as §1, §2"}, "[5]": {"target": "B3", "assay": "ITC (MicroCal iTC200, 16 °C, single-site model, two independent experiments)", "description": "The equilibrium dissociation constant of the SAGE1I3BD-INTS3CTD interaction was determined using a MicroCal iTC200 calorimeter (Malvern). The binding enthalpy was measured at 16° C. in 25 mM Tris-HCl pH 8.0, 150 mM NaCl and 5 mM MgCl2. Two independent experiments were performed. ITC data were subsequently analyzed and fitted using Origin 7 software (OriginLab).\nAll statistical tests of experimental results were performed using the GraphPad Prism 7 unless noted. The statistical significance was calculated via unpaired two-tailed Student's t test. The dissociation constants (Kd) in ITC experiments were calculated using the Origin 7 software as mean±standard error from two independent experiments with a single site-specific binding model. The statistical analysis of in vivo experiments data was performed using nonparametric Mann-Whitney test. Results were represented as mean±standard deviation unless noted and p<0.05 was considered statistically significant."}},
  "note": "Numbering of substitutions follows the chain as printed. Names may count otherwise.",
  "data": [
    {"binder": "B1", "values": [
      {"measurement": "binding result", "setting": "[1]", "value": "no binding"}
    ]},
    {"binder": "B2", "values": [
      {"measurement": "binding result", "setting": "[2]", "value": "binds"}
    ]},
    {"binder": "B3", "values": [
      {"measurement": "binding result", "setting": "[3]", "value": "binds"}
    ]},
    {"binder": "B4", "values": [
      {"measurement": "binding result", "setting": "[4]", "value": "binds"}
    ]},
    {"binder": "B5", "values": [
      {"measurement": "binding result", "setting": "[1]", "value": "no binding"}
    ]},
    {"binder": "B6", "values": [
      {"measurement": "Kd", "setting": "[5]", "value": "~39", "unit": "nM"}
    ]}
  ]
}
